Assay [1] concerns the target T1, IL-12R (Homo sapiens, UniProt P42701). Description: Steady state 125I-IL-12 binding to human cells (Scatchard). Details: human cells that naturally express IL-12R; endogenous in cells; receptor-negative PBMC, MRC-5, HL-60. The following applies: PHA-activated PBMCs, Kit-225 and Kit 225/K6 cells; third (low affinity) site.
The target in assay [2] is T2, human recombinant IL-12 receptor β subunit (Homo sapiens, UniProt P42701).
T2 construct: expressed in transfected cells; host or cells: COS / COS-7 cells
The assay can be described thus: Equilibrium binding of 125I-IL-12 and 125I-2*4E6 to recombinant IL-12R expressed in COS cells. The procedure:
COS cells (4-5×10^7) were transfected by electroporation with 25 μg of plasmid DNA expressing recombinant human IL-12R (Chua, et al., J. Immunol., 153:128 (1994)) in a BioRad Gene Pulser (250 μF, 250 volts) according to the manufacturer's protocol. The cells were plated in a 600 cm^2 culture plate, harvested after 72 hours by scraping, washed and resuspended in binding buffer. Transfected cells (8×10^4) were incubated with increasing concentrations of ^125 I-labeled 2*4E6 or IL-12 at room temperature for 2 hrs. Cell bound radioactivity was separated from free ^125 I-labeled 2*4E6 or IL-12 as described above.

Assay [3] has as its target T3, detergent solubilized IL-12R from Kit 225/K6 cells (Homo sapiens, UniProt P42701).
T3 construct: were solubilized with 8 mM CHAPS extraction buffer; endogenous in cells; host or cells: Kit 225/K6 cells, CHAPS extract
The assay can be described thus: 125I-IL-12 binding to detergent solubilized IL-12R immunoprecipitated by immobilized 2*4E6. The following applies: proteins immunoprecipitated by immobilized 2*4E6 from solubilized K6 cell extracts; read-out: apparent affinity of 125I-IL-12, single site. The procedure: FIG. 8A: Kit 225/K6 cells (1.5×10^8 cells/ml) were solubilized with 8 mM CHAPS extraction buffer and the cell extract (0.2 ml) was immunoprecipitated for 16 hrs at 4° C. with mAb 2*4E6 immobilized on goat anti-mouse IgG coupled to agarose as discussed below. Following this incubation, the beads were pelleted, washed and resuspended in IP buffer containing ^125 I-IL-12 at concentrations ranging from 7 pM to […]. The IL-12R immobilized on the 2*4E6 coated beads was incubated with ^125 I-IL-12 for 2 hrs at RT and IL-12R bound radioactivity was determined in the presence of 50 nM unlabelled IL-12.
To confirm that the antibodies identified by the immunoprecipitation assay were specific for IL-12R, an immunoprecipitation/soluble IL-12R binding assay was developed. […] Following this incubation, the beads were pelleted, washed twice with IP buffer and the bound radioactivity determined in a gamma counter. Nonspecific binding was determined by inclusion of 70 nM unlabeled human IL-12 in the assay. Solubilized IL-12R binding data were analyzed according to the method of Scatchard, (Assn. N.Y. Acad. Sci., 51, 660 (1949)) by using the nonlinear regression programs EBDA and Ligand as adapted for the IBM PC by McPherson, from Elsevier-BIOSOFT.

The target in assay [4] is T1, IL-12R. Description: Inhibition of 125I-2*4E6 binding to cells by unlabeled competitor. Details: endogenous in cells; host or cells: Kit 225/K6 cells. The following applies: PHA-activated PBMCs (FIG. 6). From the text:
The data are expressed as the amount of ^125 I-2*4E6 bound [CPM BOUND (Percent)] to the cells in the presence of the indicated concentrations of unlabeled antibody or IL-12 when compared with the total specific binding in the absence of unlabeled competitor.

The next assay has as its system IL-12 receptor. Description: Steady state 125I-IL-12 binding to human cells (Scatchard).

“IL-12: 75-kDa heterodimeric cytokine of disulfide-bonded 40-kDa and 35-kDa subunits”: the Kd is 2 to 6 nM in the assay with IL-12R [1]; 2 to 6 nM in assay [2] (rIL-12R β-expressing COS cells, read-out: apparent affinity of 125I-IL-12, single binding site); 0.188 nM in assay [3]; 0.109 nM in the assay on IL-12 receptor (YT cells, 2 sites). Further, the 125I-IL-12 sites/cell entry in assay [2] (rIL-12R-expressing COS cells) was “approximately 150,000 sites/cell”. Further, the “block of 125I-2*4E6 binding by unlabeled competitor” value with IL-12R [4] was “does not block”. For the same substance, the “IL-12 BINDING (KD, Sites/cell)” value is “none detectable” with IL-12 receptor (HL-60), “none detectable” in the assay with IL-12 receptor (MRC-5), “none detectable” in the assay on IL-12 receptor (RAJI cells) and “none detected” with IL-12 receptor (non-activated human PBMC).

The values are drawn from patent publication US5853721A, “Antibody to interleukin-12 receptor” (Hoffmann-La Roche Inc., priority 1995, dated 1998).
